Values quoted from earlier work as cited in article PMC4465451.

Target: His5 (UniProt position 30, DRVYIHPFHLV)
Experiment: mass spectrometry
Conditions: Free peptide, taken as fully solvent accessible

In the case of Angiotensin III, the pKa is listed as 6.50.
